This is an account of results in patent publication US20110091477A1 (Genentech, published 2011).

Assay [1] addresses T1, HGFA (Val373-Ser655) (human, UniProt Q04756 373-655).
T1 construct: a tag is not described; also called human HGFA
T1 sequence: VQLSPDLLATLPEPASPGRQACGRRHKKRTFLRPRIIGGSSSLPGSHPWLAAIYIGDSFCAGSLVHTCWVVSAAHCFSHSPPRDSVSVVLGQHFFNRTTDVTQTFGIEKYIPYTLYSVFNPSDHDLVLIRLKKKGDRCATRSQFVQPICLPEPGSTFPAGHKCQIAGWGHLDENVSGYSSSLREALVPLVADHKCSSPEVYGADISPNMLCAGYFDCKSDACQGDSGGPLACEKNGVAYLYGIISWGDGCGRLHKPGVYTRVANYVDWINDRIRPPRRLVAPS
Kind of assay: SPR (BIAcore 3000), IgG captured on anti-human IgG, HGFA injected, 25 C. From the text: (§1) Antibody reformatting and determination of dissociation rate constants to HGFA: Anti-HGFA Fabs were reformatted into human IgG1 by cloning the VL and VH regions of individual clones into LPG3 and LPG4 vector, respectively (Liang et al, 2007). The full-length antibodies were transiently expressed in Chinese Hamster Ovary cells and purified on a protein-A column. To determine binding affinities of the reformatted anti-HGFA antibodies, surface plasmon resonance measurements on a BIAcore™-3000 instrument (GE Health Care, NJ) were performed. Rabbit anti-human IgG were chemically immobilized (amine coupling) on CM5 biosensor chips and the anti-HGFA antibodies were captured to give approximately 250 response units (RU). For kinetics measurements, two-fold serial dilutions of HGFA or active site-blocked HGFA (0.9 nM to 250 nM) were injected in PBT buffer at 25° C. with a flow rate of 30 μl/min. HGFA-KQLR (“KQLR” disclosed as SEQ ID NO: 10) was produced by incubating HGFA with two fold molar excess of Ac-KQLR-cmk (“KQLR” disclosed as SEQ ID NO: 10) for 2 hours at room temperature, followed by size exclusion chromatography to remove non-incorporated Ac-KQLR-cmk (“KQLR” disclosed as SEQ ID NO: 10). Association rates (kₒₙ) and dissociation rates (koff) were obtained by using a simple one-to-one Langmuir binding model (BIAEvaluation) and the equilibrium dissociation constants (KD) were calculated (koff/kₒₙ). Longer injection (5 min) of 2-fold serial dilution of HGFA or HGFA-KQLR (“KQLR” disclosed as SEQ ID NO: 10) (1.5 nM to 3000 nM) over captured antibody (Ab40.ΔTrp) sensor chip was implemented to achieve maximal binding (Rₘₐₓ) and reach the steady state.
A general note: Surface plasmon resonance follows binding to a sensor surface in real time, without labels.

Assay [2] deals with urokinase-type plasminogen activator (UniProt P00749 21-431, limits assumed). Kind of assay: direct binding ELISA on coated urokinase, anti-human antibody HRP conjugate, OD 450 nm. On the procedure:
(§2) FIG. 9: (a) Antibody specificity. In a direct binding ELISA, 96-well plates were coated with […] of HGFA, matriptase (Kirchhofer et al. (2003) J Biol Chem 278:36341-36349), urokinase (American Diagnostica), or factor XIIa (American Diagnostica) and incubated with […] of anti-HGFA antibodies in PBS, 0.05% (v/v) Tween-20 (PBT) buffer. After washing, bound antibodies were detected by addition of anti-human antibody HRP conjugate (diluted 1:2,500 in PBT buffer) and TMB substrate. Absorbance at 450 nm was measured on a microplate reader.
(§3) Competition HGFA binding ELISA experiments: For binding specificity measurements, 96-well Maxisorp plates were coated with 2 μg/ml of HGFA, matriptase, urokinase-type plasminogen activator or factor XIIa and incubated with 10 μg/ml of anti-HGFA IgG in PBST buffer for at least 1 hour at room temperature. The plates were washed with PBT buffer and bound antibodies were detected with anti-human antibody HRP conjugate diluted 1:2500 in PBST buffer, developed with TMB substrate for approximately 5 minutes, quenched with 1 M H₃PO₄, and absorbance was measured on a microplate reader at 450 nm.
Background: In an ELISA, binding on a coated surface is turned into a signal by an enzyme label.

For assay [3], the target named is T2, matriptase (UniProt Q9Y5Y6 615-855, limits assumed).
T2 sequence (looked up): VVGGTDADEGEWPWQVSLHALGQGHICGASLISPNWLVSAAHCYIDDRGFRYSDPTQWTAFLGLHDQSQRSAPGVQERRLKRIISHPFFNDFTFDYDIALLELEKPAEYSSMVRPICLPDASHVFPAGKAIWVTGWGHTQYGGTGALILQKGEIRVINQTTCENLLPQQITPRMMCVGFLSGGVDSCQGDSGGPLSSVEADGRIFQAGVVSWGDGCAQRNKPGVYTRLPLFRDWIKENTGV
Kind of assay: direct binding ELISA on coated matriptase, anti-human antibody HRP conjugate, OD 450 nm. On the procedure: as §2, §3

Assay [4] concerns the target T3, factor XIIa (UniProt P00748 20-615, limits assumed).
T3 construct: also called FXIIa; coagulation factor XIIa
T3 sequence (looked up): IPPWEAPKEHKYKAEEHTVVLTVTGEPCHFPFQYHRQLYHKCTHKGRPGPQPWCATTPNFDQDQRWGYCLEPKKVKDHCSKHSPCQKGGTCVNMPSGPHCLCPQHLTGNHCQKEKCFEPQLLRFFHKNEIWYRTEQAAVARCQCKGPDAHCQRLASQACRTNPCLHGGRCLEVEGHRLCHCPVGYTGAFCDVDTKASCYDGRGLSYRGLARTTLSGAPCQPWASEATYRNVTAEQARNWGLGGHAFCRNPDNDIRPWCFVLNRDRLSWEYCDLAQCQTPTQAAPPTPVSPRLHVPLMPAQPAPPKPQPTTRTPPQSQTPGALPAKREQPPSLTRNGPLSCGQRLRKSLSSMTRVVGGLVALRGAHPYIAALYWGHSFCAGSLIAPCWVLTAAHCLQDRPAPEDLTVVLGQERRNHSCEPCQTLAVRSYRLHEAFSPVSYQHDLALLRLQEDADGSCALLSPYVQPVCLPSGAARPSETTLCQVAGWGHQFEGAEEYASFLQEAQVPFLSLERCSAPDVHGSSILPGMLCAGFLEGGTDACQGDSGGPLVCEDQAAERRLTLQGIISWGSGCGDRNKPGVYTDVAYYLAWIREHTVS
Kind of assay: direct binding ELISA on coated factor XIIa, anti-human antibody HRP conjugate, OD 450 nm. As for the experimental part:
as §2, §3

The target in assay [5] is T1, HGFA (Val373-Ser655). Kind of assay: SPR (BIAcore 3000), steady state affinity, IgG captured, HGFA injected. From the text:
(§4) Antibody reformatting and determination of dissociation rate constants to HGFA: Anti-HGFA Fabs were reformatted into human IgG1 by cloning the VL and VH regions of individual clones into LPG3 and LPG4 vector, respectively (Liang et al, 2007). The full-length antibodies were transiently expressed in Chinese Hamster Ovary cells and purified on a protein-A column. To determine binding affinities of the reformatted anti-HGFA antibodies, surface plasmon resonance measurements on a BIAcore™-3000 instrument (GE Health Care, NJ) were performed. Rabbit anti-human IgG were chemically immobilized (amine coupling) on CM5 biosensor chips and the anti-HGFA antibodies were captured to give approximately 250 response units (RU). For kinetics measurements, two-fold serial dilutions of HGFA or active site-blocked HGFA (0.9 nM to 250 nM) were injected in PBT buffer at 25° C. with a flow rate of 30 μl/min. […] Association rates (kₒₙ) and dissociation rates (koff) were obtained by using a simple one-to-one Langmuir binding model (BIAEvaluation) and the equilibrium dissociation constants (KD) were calculated (koff/kₒₙ). […]

Assay [6] concerns the target T4, HGFA-KQLR complex (human, UniProt Q04756 373-655, N-terminal acetyl; C-terminal chloromethyl ketone, reacted with Ser195 and His57 of HGFA; active-site Ser195 and His57 (chymotrypsinogen numbering) covalently linked to Ac-KQLR-cmk). Kind of assay: SPR (BIAcore 3000), steady state affinity, IgG captured, HGFA-KQLR complex injected.
Source text: as §4

The target of assay [7] is T1, HGFA (Val373-Ser655). Kind of assay: SPR.
Source text: as §4

Assay [8] has as its target T4, HGFA-KQLR complex. Kind of assay: SPR.
Source text: as §4

The target in assay [9] is T4, HGFA-KQLR complex. Kind of assay: SPR (BIAcore 3000), IgG captured on anti-human IgG, HGFA-KQLR complex injected, 25 C.
Source text: as §1

The target in assay [10] is T1, HGFA (Val373-Ser655). Kind of assay: competition ELISA: coated HGFA incubated with increasing Ab40, then 1 nM biotinylated KD1, detected with streptavidin-HRP; blocked ligand KD1; inhibition partial. From the text: FIG. 3: Effects of active site inhibitors on antibody binding to HGFA. (a-b, e-f) Surface plasmon resonance (BIAcore) measurements of binding to immobilized antibodies, Ab40 (a-b) or Ab40.ΔTrp (e-f), after co-injection of HGFA (a,e) or HGFA-KQLR (b, f) complex (“KQLR” disclosed as SEQ ID NO: 10). (c) Competition binding (BIAcore) of HGFA to immobilized Ab40 in presence of different concentrations of KD1. (d) Competition binding ELISA measuring binding of HGFA to biotinylated KD1 in the presence of increasing antibody concentrations.
HGFA purification, enzymatic kinetic assays and competition ELISA: HGFA (Val373-Ser655) was produced by use of a baculovirus—insect cell expression system and purified on a Ni-NTA-agarose column, followed by size exclusion chromatography as described (Kirchhofer et al, 2003). […] After addition of S-2266 (0.24 mM˜Kₘ) the linear rates of the increase in absorbance at 405 nm were measured on a kinetic microplate reader (Spectramax-M5, Molecular devices, Sunnyvale, Calif.). […] Various concentrations of Chromogenix S-2266 were added and the linear rates of absorbance increase at 405 nm were measured. […] Biotinylated KD1 that was bound to HGFA was detected by streptavidin-HRP conjugates.

B1: Ab39 (antibody, V domains shown)
VH: EVQLVESGGGLVQPGGSLRLSCAASGFTFNGTYIHWVRQAPGKGLEWVGGIYPAGGATYYADSVKGRFTISRDNSKNTLYLQMNSLRAEDTAVYYCAKWWAWPAFDYWGQGTLVTVSS
VL: DIQMTQSPSSLSASVGDRVTITCRASQDVSTAVAWYQQKPGKAPKLLIYSASFLYSGVPSRFSGSGSGTDFTLTISSLQPEDFATYYCQQSYTTPPTFGQGTKVEIKR
notes: also called parental Ab39; anti-HGFA antibody Ab39
The term Kd denotes a measure of binding affinity in units of concentration. What is called koff is the first-order rate constant of dissociation. Low values mean slow dissociation, high ones fast dissociation. The kon is the rate constant with which the complex forms. Consider B1, for which, in [1], the Kd stood at 10.3 nM. This molecule had a koff in assay [1] of 0.0053 s⁻¹. Moreover, the on-rate (kon) in [1] worked out at 520000 M⁻¹ s⁻¹. Also, the binding result in assay [2], in assay [3] and in assay [4] was “no binding” throughout.

B2: Ab40.ΔTrp (antibody, V domains shown)
VH: EVQLVESGGGLVQPGGSLRLSCAASGFTFNGTYIHWVRQAPGKGLEWVGGIYPAGGATYYADSVKGRFTISRDNSKNTLYLQMNSLRAEDTAVYYCAKWAWPAFDYWGQGTLVTVSS
VL: DIQMTQSPSSLSASVGDRVTITCRASQDVSTAVAWYQQKPGKAPKLLIYSASFLYSGVPSRFSGSGSGTDFTLTISSLQPEDFATYYCQQSNRAPATFGQGTKVEIKR
notes: also called Trp96H-deletion mutant of Ab40
Take B2: the Kd in [5] is 150 nM; in assay [6], 161 nM.

B3: Ab40 (antibody, V domains shown)
VH: EVQLVESGGGLVQPGGSLRLSCAASGFTFNGTYIHWVRQAPGKGLEWVGGIYPAGGATYYADSVKGRFTISRDNSKNTLYLQMNSLRAEDTAVYYCAKWWAWPAFDYWGQGTLVTVSS
VL: DIQMTQSPSSLSASVGDRVTITCRASQDVSTAVAWYQQKPGKAPKLLIYSASFLYSGVPSRFSGSGSGTDFTLTISSLQPEDFATYYCQQSNRAPATFGQGTKVEIKR
notes: also called anti-HGFA antibody Ab40
Turning to B3, in assay [7], the “fold improvement in binding affinity over Ab39” value is 64 fold. Besides, the “fold decrease in affinity compared to HGFA” value in assay [8] was determined as 8 fold. Further, the values for the equilibrium dissociation constant (Kd) in assay [1] and in assay [9] were 0.16 nM and 1.35 nM, respectively. The koff in [1] stood at 0.000175 s⁻¹; in [9] it was 0.00043 s⁻¹. Further, the kon came out at 1.08e+06 M⁻¹ s⁻¹ in [1] and 320000 M⁻¹ s⁻¹ in [9]. The binding result in [2], in assay [3] and in assay [4] was “no binding” in each case. In addition, the “IC50 (read off the curve)” value in assay [10] was around 1 nM.
